Test [1] addresses T1, NKp30 on NK cells (UniProt O14931 19-201, limits assumed).
T1 sequence (looked up): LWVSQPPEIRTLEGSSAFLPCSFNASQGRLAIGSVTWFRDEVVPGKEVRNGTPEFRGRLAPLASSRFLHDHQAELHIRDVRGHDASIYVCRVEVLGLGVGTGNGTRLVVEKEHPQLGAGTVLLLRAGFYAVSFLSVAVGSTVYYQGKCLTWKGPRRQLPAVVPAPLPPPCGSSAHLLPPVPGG
The test is described as follows: flow cytometry (y axis MFI, x axis in nM); the legend of FIGS. 3a-3h names a stable expression cell line; fit value of a flat curve, far outside the range tested. (A flow cytometer gives signals particle by particle.)

Test [2] has as its target T2, human NKp30-his protein (KACTUS; Cat: NKP-HM430) (human, UniProt O14931 19-135, limits assumed).
T2 construct: Bought protein (KACTUS NKP-HM430); not shown: His tag
T2 sequence (looked up): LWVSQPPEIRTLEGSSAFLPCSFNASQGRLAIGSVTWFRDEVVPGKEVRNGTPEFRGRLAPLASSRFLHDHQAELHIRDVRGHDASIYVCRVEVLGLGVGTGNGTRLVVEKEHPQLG
Briefly: BLI (Octet Red96e), antibody captured on AHC sensor, 100 nM human NKp30-his in solution, 1:1 fit. The protocol:
(§1) After equilibration of the AHC sensor with 0.02% PBST (0.02% Tween 20, pH 7.4, 1*PBS) as buffer for 60 s, the NKp30 antibody in the sample plate was immobilized for 300 s and second equilibration was performed for 180 s. […] human NKp30-his protein (KACTUS; Cat: NKP-HM430) was bound with NKp30 antibody for 300 s and then dissociated for 600 s. After dissociation, 10 mM glycine (pH 2.0) was used as regeneration buffer to regenerate for 30 s.
Subtract the result plot for reference channel H1 from the test result plot. The experimental data fit the 1:1 binding model. The molecular weight of 35 kDa was used to calculate the molar concentration of human NKp30 protein.

The target of test [3] is T2, human NKp30-his protein (KACTUS; Cat: …). The test is described as follows: ELISA, Human-NKp30-His coated at 0.2 µg/mL, antibody from 10 µg/mL in 3-fold steps, goat anti-human Fc, OD450 (Example 11). The method, then: (§2) Human-NKp30-His (purchased from KACTUS, item No. NKP-HM430) was diluted to 0.2 μg/mL with the coating solution (1×PBS, pH 7.4), and was coated into 96-well enzyme-labelled plates at 100 μL/well and allowed to stand overnight at 4° C. The coating solution was poured off, the plate was washed with 1×PBST at 300 μL/well, washed with a plate washer for 4 times, and patted dry on a plate paper. The plate was blocked with 3% skimmed milk powder at 300 μL/well, and incubated at 37° C. for 1 h. The blocking solution was poured off, washed with a plate washer for 4 times, and patted dry on a plate paper. The reference product and the test product were diluted with 3% skimmed milk powder to 10 μg/mL, and the initial concentration was diluted by 3 times. A total of 11 gradients were diluted, and another blank well was set, and only diluent was added. It was incubated at 37° C. and 100 μL/well for 1 h. Liquid in the wells was discarded, and washed with a plate washer for 4 times, and patted dry on a plate paper. The goat anti-human Fc was diluted with 3% skimmed milk powder at 1: 20,000 and 100 μL/well, and incubated at 37° C. for 1 h. The plate was washed with a plate washer for 6 times, and patted dry on a plate paper. TMB color developing solution was added at 100 μL/well, and wrapped with an aluminum foil, and the color was developed at 37° C. for 8 minutes, protected from light. The termination solution 1 M HCl was added at 100 μL/well to terminate the color development reaction. It was read at 450 nm on an enzyme-labeled instrument.
A general note: In an ELISA, binding on a coated surface is turned into a signal by an enzyme label.

For test [4], the target named is T1, NKp30 on NK cells. Briefly: cell-based or functional assay.
In test [5] the target is T2, human NKp30-his protein (KACTUS; Cat: …). Briefly: ELISA, Human-NKp30-His coated at 0.2 µg/mL, antibody from 10 µg/mL in 3-fold steps, goat anti-human Fc, OD450 (Example 11). The method, then:
as §2, with “TMB color developing solution was added at 100 μL/well, and wrapped with an aluminum foil, and the color was developed at 37° C. for 8 minutes, protected from light. The termination solution 1 M HCl was added at 100 μL/well to terminate the color development reaction.” left out
The source holds these as a separate data set.

The target is the same in test [6]. The test is described as above. The method, then: as §2
The source holds these as a separate data set.

For test [7], the target named is T1, NKp30 on NK cells. Briefly: flow cytometry (y axis MFI, x axis in nM); the legend of FIGS. 3a-3h names a stable expression cell line; Example 11 describes no cell assay.
The target in test [8] is T2, human NKp30-his protein (KACTUS; Cat: …). Briefly: BLI (Octet Red96e), method of Example 6: antibody on AHC sensor, human NKp30-his in solution; second run, Table 4 (Example 12 series with the CDR-modified and humanized variants). The method, then: as §1
(§3) The affinity of the CDR-modified and humanized antibodies was tested according to the method of Example 6, and the results are shown in Table 4.
A general note: BLI is a label-free optical method that tracks binding on a fibre tip over time.

Test [9] has the same target. Briefly: BLI (Octet Red96e), method of Example 6: antibody on AHC sensor, human NKp30-his in solution. The protocol: as §1, §3
The target is the same in test [10]. Briefly: ELISA, Human-NKp30-His coated at 0.2 µg/mL, antibody from 10 µg/mL in 3-fold steps, goat anti-human Fc, OD450 (Example 11); the fit value lies above the highest concentration tested. The protocol: as §2, with “TMB color developing solution was added at 100 μL/well, and wrapped with an aluminum foil, and the color was developed at 37° C. for 8 minutes, protected from light. The termination solution 1 M HCl was added at 100 μL/well to terminate the color development reaction.” left out

Test [11] has the same target. The test is described as follows: ELISA, Human-NKp30-His coated at 0.2 µg/mL, antibody from 10 µg/mL in 3-fold steps, goat anti-human Fc, OD450 (Example 11); the curve stays low: fitted plateau about OD450 0.25, highest point about 0.4 at 3.3 µg/mL, about 0.2 at 10 µg/mL. The method, then:
as §2, with “TMB color developing solution was added at 100 μL/well, and wrapped with an aluminum foil, and the color was developed at 37° C. for 8 minutes, protected from light. The termination solution 1 M HCl was added at 100 μL/well to terminate the color development reaction.” left out

Results on 12 molecules are retold here after patent US20240150460A1 (SHENGHE CHINA BIOPHARMACEUTICAL, published 2024).

The EC50 is the midpoint of the concentration-response curve. A low value points to higher potency in that assay. The term Kd denotes the concentration at which binding is half-saturated. Higher therefore signals lower affinity. In general, EC50 (read off the curve) refers to the concentration at which the effect is half-maximal. Low values mean greater potency, high ones weaker potency.

isotype control antibody: the half-maximal effective concentration (EC50) with NKp30 on NK cells [1] was determined as 241000 nM.

B1: antibody 10 (antibody, V domains shown)
VH: QVQLVESGGGLVQPGGSLTLSCAVSGITFSRSVMGWFRQAPGKLRELVAGITSDDNTDYADSVKGRFTISRDNAKNTVYLQMNSLKPEDTAVYYCNILPDSRLGWGQGTQVTVSS
notes: expressed in CHO cells; also called chimeric antibody 10
In test [2], B1 displayed a Kd of 0.201 nM. This molecule yielded an EC50 in test [3] of 5.22 ng/mL.

B2: antibody 18-hu3 (antibody, V domains shown)
VH: EVQLVESGGGLVQPGGSLRLSCAASGIRFSIANMGWYRQAPGKLHEMVAGITSDGFTNYADSVKGRFTISRDNSKNTLYLQMNSLRAEDTAVYYCASFPTRHYWGQGTLVTVSS
notes: also called humanized antibody 18-hu3
B2: in the test with NKp30 on NK cells [4], the “IFN-γ secretion by NK cells stimulated with plate-coated antibody, EC50” value turned out to be 8.83 nM. The midpoint of the response in test [3], the EC50, lay at 8.48 ng/mL.

B3: antibody 18-hu4 (antibody, V domains shown)
VH: EVQLVESGGGLVQPGGSLRLSCAASGIRFSIANMGWYRQAPGKLHEMVAGITSDGFTNYADSVKGRFTISRDNSKNTLYLQMNSLRAEDTAVYYCDSFPTRHYWGQGTLVTVSS
Consider B3, for which the midpoint of the response in [5], the EC50, lay at 17 ng/mL.

B4: antibody 18 (antibody, V domains shown)
VH: EVQLVESGGGLVQPGGSLRLSCAAAGIRFSIANMGWYRQAPGKLHEMVAGITSDGFTNYADSVKGRFTISRDNAKNTVYLQMNNLKPEDTAVYYCDSFPTRHYWGQGTQVTVSS
notes: expressed in CHO cells; also called chimeric antibody 18
In the case of B4, the equilibrium dissociation constant (Kd) in [2] was 0.302 nM. Moreover, the EC50 in test [3] was found to be 2.51 ng/mL; in [5], 3.62 ng/mL.

B5: antibody 23 (antibody, V domains shown)
VH: EVQLVESGGGLVQPGGSLRLSCAASGSIFSPNGIGWYRQAPGKLRELVAGITGNGLTDYADSVKGRFTISRDSAKNTVYLQMNSLKTEDTAVYYCNLLLNHAEWGQGTQVTVSS
notes: expressed in CHO cells; also called chimeric antibody 23
Take B5: the figures for the Kd in test [2] and in test [8] were 2.34 nM and 0.844 nM, respectively. Further, the EC50 in [3] amounted to 7.46 ng/mL; in [6], 2.38 ng/mL; with NKp30 on NK cells [7], 0.658 nM. Moreover, the “EC50 (read off the curve)” value in test [3] is roughly 7 ng/mL.

B6: antibody 23-p (antibody, V domains shown)
VH: EVQLVESGGGLVQPGGSLRLSCAASGSIFSPNGIGWYRQAPGKLRELVAGITGNGLTDYAESVKGRFTISRDSAKNTVYLQMNSLKTEDTAVYYCNLLLNHAEWGQGTQVTVSS
Molecule B6 registered a dissociation constant Kd in test [9] of 1.27 nM. The same molecule gave an EC50 with NKp30 on NK cells [7] of 0.493 nM.

B7: antibody 23-hu48 (antibody, V domains shown)
VH: EVQLVESGGGLVQPGGSLRLSCAASGSIFSPNAIGWYRQAPGKGRELVSGITGNGLTDYAESVKGRFTISRDNSKNTVYLQMNSLRAEDTAVYYCALLLNHAEWGQGTLVTVSS
For the molecule B7, the Kd in test [9] was 5.1 nM. In test [10], this molecule had a concentration giving a half-maximal response (EC50) of 76200 ng/mL.

B8: antibody 23-hu44 (antibody, V domains shown)
VH: EVQLVESGGGLVQPGGSLRLSCAASGSIFSPNGIGWYRQAPGKGRELVSGITGNGLTDYAESVKGRFTISRDNSKNTVYLQMNSLRAEDTAVYYCALLLNHAEWGQGTLVTVSS
Turning to B8, in test [9], binding was characterised by a dissociation constant (Kd) of 1.3 nM.

B9: antibody 23-hu45 (antibody, V domains shown)
VH: EVQLVESGGGLVQPGGSLRLSCAASGSIFSPNGIGWYRQAPGKLRELVAGITGNGLTDYAESVKGRFTISRDNSKNTVYLQMNSLRAEDTAVYYCNLLLNHAEWGQGTLVTVSS
Consider B9, for which, in test [9], the equilibrium dissociation constant (Kd) is 0.991 nM. The 50% effective concentration (EC50 (read off the curve)) in test [3] was roughly 3 ng/mL. In [6], this molecule returned a concentration for a half-maximal effect (EC50) of 2.83 ng/mL.

B10: antibody 23-hu52 (antibody, V domains shown)
VH: EVQLVESGGGLVQPGGSLRLSCAASGSIFSPQGIGWYRQAPGKGRELVSGITGNGLTDYAESVKGRFTISRDNSKNTVYLQMNSLRAEDTAVYYCALLLNHAEWGQGTLVTVSS
Regarding B10, the equilibrium dissociation constant (Kd) in [9] was found to be 5.93 nM. In test [11], this molecule displayed an EC50 of 230 ng/mL.

B11: antibody 23-hu49 (antibody, V domains shown)
VH: EVQLVESGGGLVQPGGSLRLSCAASGSIFSPNAIGWYRQAPGKLRELVAGITGNGLTDYAESVKGRFTISRDNSKNTVYLQMNSLRAEDTAVYYCNLLLNHAEWGQGTLVTVSS
In the case of B11, a half-maximal effect in test [6] (EC50) was put at 2.27 ng/mL.
